Target: actin (untreated, of the in vitro assays of Fig. 1) (UniProt P68135)

Mical, sequence (Q86BA1 whole entry): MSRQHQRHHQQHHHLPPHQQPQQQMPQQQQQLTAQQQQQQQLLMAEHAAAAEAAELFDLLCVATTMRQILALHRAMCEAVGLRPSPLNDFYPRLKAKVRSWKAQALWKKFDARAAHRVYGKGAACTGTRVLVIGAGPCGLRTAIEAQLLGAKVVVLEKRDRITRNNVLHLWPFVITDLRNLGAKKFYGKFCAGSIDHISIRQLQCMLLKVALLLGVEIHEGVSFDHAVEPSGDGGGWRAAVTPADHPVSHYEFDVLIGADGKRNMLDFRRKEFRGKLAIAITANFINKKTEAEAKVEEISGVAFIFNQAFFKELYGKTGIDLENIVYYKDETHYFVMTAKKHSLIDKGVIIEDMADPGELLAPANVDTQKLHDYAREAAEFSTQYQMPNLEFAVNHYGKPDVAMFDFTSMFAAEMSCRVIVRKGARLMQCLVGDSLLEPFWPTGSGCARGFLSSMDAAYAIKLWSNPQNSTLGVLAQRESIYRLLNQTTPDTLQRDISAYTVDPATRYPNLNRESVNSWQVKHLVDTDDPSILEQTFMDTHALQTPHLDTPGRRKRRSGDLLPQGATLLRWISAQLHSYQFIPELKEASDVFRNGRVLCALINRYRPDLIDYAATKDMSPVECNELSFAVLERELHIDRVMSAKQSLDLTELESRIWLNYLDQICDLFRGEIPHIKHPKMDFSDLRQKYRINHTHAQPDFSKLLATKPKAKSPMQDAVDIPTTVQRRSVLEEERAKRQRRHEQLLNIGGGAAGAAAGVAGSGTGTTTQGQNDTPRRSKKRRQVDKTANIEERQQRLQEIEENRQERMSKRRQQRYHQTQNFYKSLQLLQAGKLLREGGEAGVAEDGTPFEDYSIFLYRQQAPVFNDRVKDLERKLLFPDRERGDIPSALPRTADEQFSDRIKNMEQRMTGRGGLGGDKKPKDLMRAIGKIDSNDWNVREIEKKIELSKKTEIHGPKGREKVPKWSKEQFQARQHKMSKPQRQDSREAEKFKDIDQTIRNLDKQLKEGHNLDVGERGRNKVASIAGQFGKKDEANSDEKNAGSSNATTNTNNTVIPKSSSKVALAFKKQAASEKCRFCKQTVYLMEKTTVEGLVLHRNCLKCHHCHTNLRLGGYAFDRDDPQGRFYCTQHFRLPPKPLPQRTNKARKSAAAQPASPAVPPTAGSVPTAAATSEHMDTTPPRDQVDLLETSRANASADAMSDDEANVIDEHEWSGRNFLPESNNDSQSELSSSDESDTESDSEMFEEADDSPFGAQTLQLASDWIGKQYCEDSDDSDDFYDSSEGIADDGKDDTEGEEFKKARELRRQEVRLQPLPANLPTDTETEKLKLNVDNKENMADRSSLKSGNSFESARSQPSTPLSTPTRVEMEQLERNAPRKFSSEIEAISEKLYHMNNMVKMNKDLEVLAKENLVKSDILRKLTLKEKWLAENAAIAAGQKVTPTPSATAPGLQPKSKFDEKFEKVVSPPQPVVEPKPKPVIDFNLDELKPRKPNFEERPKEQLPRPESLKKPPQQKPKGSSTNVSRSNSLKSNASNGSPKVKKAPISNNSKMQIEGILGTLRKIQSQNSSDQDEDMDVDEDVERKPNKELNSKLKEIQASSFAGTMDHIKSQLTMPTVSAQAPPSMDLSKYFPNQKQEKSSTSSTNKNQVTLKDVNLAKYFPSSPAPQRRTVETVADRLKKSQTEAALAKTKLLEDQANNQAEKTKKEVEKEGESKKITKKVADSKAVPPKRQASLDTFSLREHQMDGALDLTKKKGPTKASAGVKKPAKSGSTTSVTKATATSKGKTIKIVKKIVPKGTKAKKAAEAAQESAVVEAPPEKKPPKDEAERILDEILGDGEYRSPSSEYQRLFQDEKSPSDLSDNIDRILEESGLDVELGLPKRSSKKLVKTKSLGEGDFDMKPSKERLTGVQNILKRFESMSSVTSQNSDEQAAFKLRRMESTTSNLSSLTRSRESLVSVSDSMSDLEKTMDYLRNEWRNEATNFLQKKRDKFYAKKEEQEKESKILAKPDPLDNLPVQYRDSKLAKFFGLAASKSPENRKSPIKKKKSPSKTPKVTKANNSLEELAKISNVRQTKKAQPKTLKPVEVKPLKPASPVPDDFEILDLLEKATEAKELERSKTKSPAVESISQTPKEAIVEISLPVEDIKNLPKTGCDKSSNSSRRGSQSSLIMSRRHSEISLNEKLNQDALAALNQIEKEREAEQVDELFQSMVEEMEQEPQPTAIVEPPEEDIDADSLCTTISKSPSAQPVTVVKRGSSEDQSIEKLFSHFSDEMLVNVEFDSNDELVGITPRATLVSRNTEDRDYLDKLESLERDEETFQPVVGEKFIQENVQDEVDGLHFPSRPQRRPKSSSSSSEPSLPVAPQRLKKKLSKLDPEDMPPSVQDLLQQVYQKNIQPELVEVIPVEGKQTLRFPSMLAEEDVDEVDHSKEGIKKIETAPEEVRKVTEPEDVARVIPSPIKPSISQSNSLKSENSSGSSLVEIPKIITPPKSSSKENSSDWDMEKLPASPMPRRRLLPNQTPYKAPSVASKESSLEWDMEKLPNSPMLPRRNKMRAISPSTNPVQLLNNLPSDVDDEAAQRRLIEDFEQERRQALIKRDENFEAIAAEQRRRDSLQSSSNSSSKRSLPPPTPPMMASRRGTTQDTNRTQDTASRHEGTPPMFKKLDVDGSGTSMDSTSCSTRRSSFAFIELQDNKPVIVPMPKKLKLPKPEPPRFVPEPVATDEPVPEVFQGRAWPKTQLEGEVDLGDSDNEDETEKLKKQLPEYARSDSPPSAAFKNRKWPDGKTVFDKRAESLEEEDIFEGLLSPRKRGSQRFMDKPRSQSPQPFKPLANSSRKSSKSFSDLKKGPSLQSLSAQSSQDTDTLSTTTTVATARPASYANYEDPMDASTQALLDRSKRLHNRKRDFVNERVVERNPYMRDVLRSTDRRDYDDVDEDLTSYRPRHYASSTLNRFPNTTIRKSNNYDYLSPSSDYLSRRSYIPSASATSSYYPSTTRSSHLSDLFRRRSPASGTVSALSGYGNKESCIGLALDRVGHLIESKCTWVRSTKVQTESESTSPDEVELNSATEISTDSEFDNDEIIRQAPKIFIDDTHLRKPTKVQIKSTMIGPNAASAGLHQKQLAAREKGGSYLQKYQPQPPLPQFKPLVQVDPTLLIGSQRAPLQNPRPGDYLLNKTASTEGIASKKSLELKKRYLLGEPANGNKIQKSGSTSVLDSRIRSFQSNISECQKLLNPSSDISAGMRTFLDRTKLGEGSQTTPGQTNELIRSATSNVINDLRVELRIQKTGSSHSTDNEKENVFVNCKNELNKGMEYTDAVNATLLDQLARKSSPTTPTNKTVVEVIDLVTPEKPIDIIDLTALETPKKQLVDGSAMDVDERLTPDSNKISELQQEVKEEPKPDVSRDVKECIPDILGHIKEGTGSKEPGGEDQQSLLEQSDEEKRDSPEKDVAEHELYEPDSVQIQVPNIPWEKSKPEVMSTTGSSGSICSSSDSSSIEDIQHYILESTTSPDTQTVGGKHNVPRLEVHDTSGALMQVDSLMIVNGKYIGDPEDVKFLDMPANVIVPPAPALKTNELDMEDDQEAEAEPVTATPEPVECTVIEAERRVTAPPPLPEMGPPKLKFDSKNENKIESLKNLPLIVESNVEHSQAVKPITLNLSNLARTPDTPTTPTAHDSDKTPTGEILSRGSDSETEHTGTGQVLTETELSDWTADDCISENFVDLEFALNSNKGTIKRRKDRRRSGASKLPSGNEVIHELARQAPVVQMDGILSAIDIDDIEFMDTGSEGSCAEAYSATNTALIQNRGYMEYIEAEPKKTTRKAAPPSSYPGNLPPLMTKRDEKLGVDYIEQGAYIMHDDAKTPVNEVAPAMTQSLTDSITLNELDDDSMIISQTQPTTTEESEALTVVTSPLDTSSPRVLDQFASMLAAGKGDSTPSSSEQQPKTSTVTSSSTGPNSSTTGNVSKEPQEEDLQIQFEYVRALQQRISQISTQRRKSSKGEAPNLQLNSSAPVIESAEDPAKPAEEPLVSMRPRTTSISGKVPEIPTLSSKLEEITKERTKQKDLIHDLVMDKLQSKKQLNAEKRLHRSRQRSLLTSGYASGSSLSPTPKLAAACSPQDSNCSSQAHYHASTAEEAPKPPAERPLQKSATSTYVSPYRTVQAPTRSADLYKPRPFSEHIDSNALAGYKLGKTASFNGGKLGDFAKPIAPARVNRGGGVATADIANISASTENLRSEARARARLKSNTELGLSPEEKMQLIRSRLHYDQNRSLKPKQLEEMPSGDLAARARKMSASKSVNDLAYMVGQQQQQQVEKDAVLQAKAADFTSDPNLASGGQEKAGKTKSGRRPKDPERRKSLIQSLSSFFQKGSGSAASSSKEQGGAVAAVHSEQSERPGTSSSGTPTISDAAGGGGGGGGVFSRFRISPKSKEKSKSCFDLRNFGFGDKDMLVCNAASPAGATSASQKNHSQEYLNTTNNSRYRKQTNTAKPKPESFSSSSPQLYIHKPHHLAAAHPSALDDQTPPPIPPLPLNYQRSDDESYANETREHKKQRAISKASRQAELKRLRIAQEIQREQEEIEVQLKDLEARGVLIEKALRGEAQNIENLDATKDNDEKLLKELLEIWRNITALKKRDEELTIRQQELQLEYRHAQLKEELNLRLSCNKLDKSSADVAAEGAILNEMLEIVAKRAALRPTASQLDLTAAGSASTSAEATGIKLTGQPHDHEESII

Mical enzymatic activity (conversion of NADPH to NADP+) with F-actin: > 100 fold
Substance: Mical (from UniProt Q86BA1 1-4723) (enzyme)

Source: article PMC3612955
